Source: paper PMC9879961 (Nature Communications, 2023)

T1: CTRB (Homo sapiens, UniProt P51587 3194-3418)
T1 sequence: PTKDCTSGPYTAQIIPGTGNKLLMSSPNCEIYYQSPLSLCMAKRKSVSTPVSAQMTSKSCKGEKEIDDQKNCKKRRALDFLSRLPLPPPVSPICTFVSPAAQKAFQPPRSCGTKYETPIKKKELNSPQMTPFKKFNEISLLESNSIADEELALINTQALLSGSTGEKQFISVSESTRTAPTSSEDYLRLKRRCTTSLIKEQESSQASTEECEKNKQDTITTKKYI

T2: RAD51 (UniProt Q06609 1-339)
T2 construct: No tag is named; also called RAD51 recombinase; source: E. coli BLR pRARE (pET11-RAD51), purified (ammonium sulfate, Q Sepharose, hydroxyapatite, Mono-Q)
T2 sequence (looked up): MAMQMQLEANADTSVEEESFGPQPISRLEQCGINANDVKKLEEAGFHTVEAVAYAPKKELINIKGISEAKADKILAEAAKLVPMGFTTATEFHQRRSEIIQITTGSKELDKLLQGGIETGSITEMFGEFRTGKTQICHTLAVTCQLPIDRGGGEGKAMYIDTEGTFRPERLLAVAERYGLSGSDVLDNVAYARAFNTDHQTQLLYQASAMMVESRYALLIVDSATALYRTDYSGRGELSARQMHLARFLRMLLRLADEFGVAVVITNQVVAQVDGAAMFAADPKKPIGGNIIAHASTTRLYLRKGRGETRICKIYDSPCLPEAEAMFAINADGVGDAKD


Experiments:
CTRB = molecular target: T1, CTRB; assay: EMSA; highest affinity of the three DNAs; EMSA: 10 nM DNA, 35 mM Tris pH 7.5, 1 mM MgCl2, 1 mM DTT, 100 ug/ml BSA, 50 mM KCl, 25 C, 5 min; 8% native PAGE in TAE; settings: protein: recombinant; tags: N-term His6-thioredoxin-S (pET32a), C-term Flag; label: 5' Cy5 on H3; fork 1:2, 40 bp duplex with two 40 nt ssDNA arms
RAD51 [1] = molecular target: T2, RAD51; assay: pull-down; CTRB species held through the S-tag on S-Protein agarose; RAD51 and CTRB 4 µg each; 25 µl buffer T (25 mM Tris-HCl pH 7.5, 0.5 mM EDTA, 10% glycerol, 0.01% Igepal) with 150 mM KCl and Benzonase; on ice 30 min, resin 1 h at 4 °C; SDS-PAGE, Coomassie; settings: both partners purified
RAD51 [2] = molecular target: T2, RAD51; assay: pull-down; GST-tagged TR2 polypeptides captured on glutathione-Sepharose with RAD51; 10 µl buffer K (20 mM KH2PO4 pH 7.5, 0.5 mM EDTA, 10% glycerol, 0.01% Igepal) with 150 mM KCl; SDS-PAGE, Coomassie; settings: both partners purified

binding result (RAD51 [1])	binding result (RAD51 [2])	Binder	further results
–	binds	GST-TR2 (BRCA2 residues 3265-3330) (domain or fragment, human, UniProt P51587 3265-3330, looked up, BRCA2, human, TR2 region, residues 3265-3330; also called BRCA2-TR2 polypeptide; source: E. coli Rosetta (pGEX-TR2), purified (glutathione-Sepharose, SP Sepharose); not shown: GST, N-terminal, kept) CKKRRALDFLSRLPLPPPVSPICTFVSPAAQKAFQPPRSCGTKYETPIKKKELNSPQMTPFKKFNE	–
–	binds	GST-TR2 with deletion of residues 3291-3295 (domain or fragment, human, UniProt P51587 3265-3330, looked up, BRCA2, human, TR2 region, residues 3265-3330, internally truncated; source: E. coli Rosetta (pGEX-TR2 variant), purified (glutathione-Sepharose, SP Sepharose); not shown: GST, N-terminal, kept) CKKRRALDFLSRLPLPPPVSPICTFVKAFQPPRSCGTKYETPIKKKELNSPQMTPFKKFNE	–
–	binds	GST-TR2 with deletion of residues 3306-3310 (domain or fragment, human, UniProt P51587 3265-3330, looked up, BRCA2, human, TR2 region, residues 3265-3330, internally truncated; source: E. coli Rosetta (pGEX-TR2 variant), purified (glutathione-Sepharose, SP Sepharose); not shown: GST, N-terminal, kept) CKKRRALDFLSRLPLPPPVSPICTFVSPAAQKAFQPPRSCGPIKKKELNSPQMTPFKKFNE	–

Continued, binder first:

Binder	binding result (RAD51 [1])	binding result (RAD51 [2])	further results
Fork substrate (Oligo-H3/H5) (mixed) DNA 1: TTGATAAGAGGTCATTTGAATTCATGGCTTAGAGCTTAATTGCTGAATCTGGTGCTGGGATCCAACATGTTTTAAATATG DNA 2: CATATTTAAAACATGTTGGATCCCAGCACCAGATTCAGCATACGTTACCGATCGTACGTTCGATGCTGGCTACTGCTAGC	–	–	binding result (CTRB): binds
CTRB (BRCA2 residues 3194-3418), His6-Thioredoxin-S tagged, C-terminally Flag-tagged (domain or fragment, human, UniProt P51587 3194-3418, looked up, BRCA2, human, residues 3194-3418 of the 3,418-residue protein; No tag cleavage is described; also called wild-type CTRB; source: E. coli Rosetta (pET32a), purified (Ni-NTA, Source S, anti-Flag M2, Mono-Q)) PTKDCTSGPYTAQIIPGTGNKLLMSSPNCEIYYQSPLSLCMAKRKSVSTPVSAQMTSKSCKGEKEIDDQKNCKKRRALDFLSRLPLPPPVSPICTFVSPAAQKAFQPPRSCGTKYETPIKKKELNSPQMTPFKKFNEISLLESNSIADEELALINTQALLSGSTGEKQFISVSESTRTAPTSSEDYLRLKRRCTTSLIKEQESSQASTEECEKNKQDTITTKKYI	binds	–	–
CTRB-S3291E (domain or fragment, human, UniProt P51587 3194-3418, looked up, BRCA2, human, CTRB (residues 3194-3418) with S3291E; Called a CTRB mutant purified as wild-type CTRB; source: E. coli, purified using the procedure developed for wild-type CTRB) PTKDCTSGPYTAQIIPGTGNKLLMSSPNCEIYYQSPLSLCMAKRKSVSTPVSAQMTSKSCKGEKEIDDQKNCKKRRALDFLSRLPLPPPVSPICTFVEPAAQKAFQPPRSCGTKYETPIKKKELNSPQMTPFKKFNEISLLESNSIADEELALINTQALLSGSTGEKQFISVSESTRTAPTSSEDYLRLKRRCTTSLIKEQESSQASTEECEKNKQDTITTKKYI	binds	–	–
CTRB-4A (BRCA2 residues 3194-3418, KKRR(3266-3269) to AAAA) (domain or fragment, human, UniProt P51587 3194-3418, looked up, BRCA2, human, residues 3194-3418; also called 4 A mutant; source: E. coli Rosetta (pET32a), purified as the wild type) PTKDCTSGPYTAQIIPGTGNKLLMSSPNCEIYYQSPLSLCMAKRKSVSTPVSAQMTSKSCKGEKEIDDQKNCAAAAALDFLSRLPLPPPVSPICTFVSPAAQKAFQPPRSCGTKYETPIKKKELNSPQMTPFKKFNEISLLESNSIADEELALINTQALLSGSTGEKQFISVSESTRTAPTSSEDYLRLKRRCTTSLIKEQESSQASTEECEKNKQDTITTKKYI	binds	–	–
CTRB-S3291A (domain or fragment, human, UniProt P51587 3194-3418, looked up, BRCA2, human, CTRB (residues 3194-3418) with S3291A; Called a CTRB mutant purified as wild-type CTRB; source: E. coli, purified using the procedure developed for wild-type CTRB) PTKDCTSGPYTAQIIPGTGNKLLMSSPNCEIYYQSPLSLCMAKRKSVSTPVSAQMTSKSCKGEKEIDDQKNCKKRRALDFLSRLPLPPPVSPICTFVAPAAQKAFQPPRSCGTKYETPIKKKELNSPQMTPFKKFNEISLLESNSIADEELALINTQALLSGSTGEKQFISVSESTRTAPTSSEDYLRLKRRCTTSLIKEQESSQASTEECEKNKQDTITTKKYI	binds	–	–
